# Experimental data as given in patent US20160009795A1 (BIOCARE MEDICAL, published 2016).
# T1: p40 peptide amino acids 1-9 (MLYLENNAQ) (human)
# T1 peptide: MLYLENNAQ
# T2: p40 peptide amino acids 1-17 (MLYLENNAQTQFSEPQY) (human)
# T2 peptide: MLYLENNAQTQFSEPQY
# Legend:
# [1] = target: T1, p40 peptide amino acids 1-9 (MLYLENNAQ); experiment: epitope mapping, peptide ELISA and dot blot
# Source text: (§1) In order to determine the peptide sequence of p40 that is recognized by anti-p40 antibodies such as BC28, epitope mapping may be conducted perhaps using two assays: direct ELISA and even dot blot. In an ELISA assay, the sensitivity and specificity of the anti-p40 [BC28] antibody may be determined by measuring the antibody titer at about 1:500 and about 1:1000. Overlapping peptides at a length of about 15 amino acids each, covering the human p40 protein sequence from perhaps 1 to 17 amino acids, may be used to determine a sequence of BC28 binding.
# [2] = target: T2, p40 peptide amino acids 1-17 …; experiment: epitope mapping, peptide ELISA and dot blot
# Source text: as §1
binder,measurement,setting,value
"mouse monoclonal anti-p40 antibody BC28 (antibody, mouse IgG1, V domains shown, also called p40 [BC28]; p40 (M)) VH: GVKLVESGGGFVKPGGSLTLSCAASGFTFSIYAMSWVRQTPEKRLEWVTSISSGDDIFYPDNLKGQFTISRDNARNILYLQMSSLRSEDTAIYYCVRHGYNATDYWGQGTSVTVSS VL: DVLMTQTPLSLPVSLGDQASISCRSSQSIVYSNGNTYLEWYLQKPGQSPKLLIYKVSNRFSGVPDRFSGSGSGTDFTLKISRVEAEDLGVYYCFQGSHVPFTFGSGTKLEIK",binding result,[1],binds
same,binding result,[2],binds
